Data reported in patent US20240398899A1 (priority 2021, published 2024).

Experiments:
SH-SY5Y neuronal cells = assay: Sub (G0/G1) cell population by PI cell cycle assay against MPP+ iodide damage; type: cell-based, human; conditions: MPP + Iodide (2 mM); for % Decrease in Apoptotic cells (wrt MPP + iodide): SubG0/G1
Experimental: After incubation as in Example 2a and 2b, cells were harvested by trypsinization and processed for Cell cycle assay as follows: Cell cycle reagent contains PI stain, which stains DNA of cells in different phases of cell cycle; Sub (G0/G1), G1, S, G2 and M. Cells in Sub (G0/G1) phase correspond to apoptotic cells.
Cells were gently harvested into pre-labelled centrifuge tubes and centrifuged at 450 g for 5 min, RT (low brake). The supernatants were removed carefully and discarded. 1 ml of 1×PBS was added to the pellet and resuspended gently to make homogenous suspension. Cells were centrifuged at 450 g for 5 min, RT (low brake). The supernatant was carefully removed leaving behind approximately 100 μl of PBS. Cells were resuspended gently yet thoroughly in residual PBS. The cells were fixed by adding Ice-cold 70% ethanol (100 μl) added dropwise into cells in each tube while vortexing at low speed Cells were stored at 4° C. for 24 h prior to staining.
Ethanol fixed cells were centrifuged at 450 g for 5 min, RT (low brake) the supernatant was carefully removed (not to touch the pellet) and discarded. 1 ml of 1×PBS was added into pellet and resuspended gently. Cells were incubated for 1 minute at RT. Cells were centrifuged at 450 g for 5 min, RT (low brake). (washing step) The supernatant was removed carefully leaving behind approx. 20 μl-50 μl of PBS. 200 μl of Cell Cycle reagent was added into each tube. Cells were resuspended gently and mixed. Cells were incubated for 30 min, RT, Dark. The stained samples were transferred into 96-well plates and acquired on flow cytometer (Guava technologies). Percentage of cells in Sub (G0/G1) phase were determined.
Percent inhibition in apoptotic cells=[(% Sub(G0/G1)cells in MPP+iodide alone) −(% Sub(G0/G1)cells in SEQ ID NO:1+MPP+iodide)/% Sub(G0/G1)cells in MPP+iodide alone]*100

Swiss albino mice = assay: Passive avoidance test, scopolamine induced dementia; type: in vivo, Mus musculus (Swiss Albino)
Experimental: Required amount of recombinant lectin protein having SEQ ID NO: 1 was diluted in sterile Tris Buffered Saline (TBS) to achieve desired final concentration, i.e 0.1 mg/mL, 0.05 mg/mL, 0.025 mg/mL, at the doses of 0.5 mg/kg, 0.25 mg/kg and 0.125 mg/kg respectively. Formulation was prepared fresh daily.
TBS buffer and 0.5% CMC were used as a vehicle for preparation of test item, recombinant Lectin having SEQ ID NO: 1 and reference item formulation, respectively Male Mus musculus (Swiss Albino) aged between 8-10 weeks procured from GENTOX Bio services Pvt Ltd, Hyderabad. Animals were classified into 6 groups and acclimatized for two weeks. Animals were identified by cage labelling and tail marking and were randomized on the basis of their body weight.
Healthy male Swiss albino mice (n=48) were selected and randomized based on body weight (n=8 per Group) into 6 groups as mentioned in table no-1. The control group G1 was treated intravenously with vehicle daily till the experiment completion. Group G2 was considered as negative control and treated with vehicle. […] Group G4, G5 &G6 animals were treated with the test item recombinant lectin protein having SEQ ID NO: 1 at the dose of 0.5 mg/kg, 0.25 mg/kg and 0.125 mg/kg, respectively. All the test items were given intravenously (i.v) daily at the dose volume of 5 ml/kg for 14 Days. The body weight was recorded daily throughout the experimental period. […] One hour after the last dose of test items (on Day 14) all the animals were injected with scopolamine hydrobromide at the dose of 2.5 mg/kg, i.p., except the normal control group G1. Passive avoidance test was conducted 30 min after scopolamine injection.
This learning and memory test were performed in two chambers, which has square boxes, identical size, juxtaposed as illuminated and dark. A lamp was placed above one chamber for illumination. Each test involved two separate trials, a training trial and a test trial.
For the training trial, the mice were initially placed in the illuminated chamber. When the mice entered the dark chamber, an electrical shock (0.5 mA) for 3 sec. was delivered through stainless steel rods. The latency times once the mice entered from light compartment to the dark compartment was recorded using in-build timer. A test trial was performed 24 h following the training trial, and latency times to re-enter the dark chamber was measured up to 5 min

B1: SEQ ID NO: 1: variant of the S. rolfsii lectin amino acid sequence (reported as Rec-2 in WO2010/095143) (protein)
chain: TYKITVRVYQTNPDAFFHPVEKTVWKYANGGTWTITDDQHVLTMGGSGTSGTLRFHADNGESFTATFGVHNYKRWCDIVTNLAADETGMVINQQYYSQKNREEARERQLSNYQVKNAKGRNFQIVYTEAEGNDLHANLIIG
% Apoptotic cells (SubG0/G1) (SH-SY5Y neuronal cells; 0.001 μg/mL): 2.7%
% Decrease in Apoptotic cells (wrt MPP + iodide) (SH-SY5Y neuronal cells; 0.001 μg/mL): 18.8%
% Apoptotic cells (SubG0/G1) (SH-SY5Y neuronal cells; 0.01 μg/mL): 2.2%
% Decrease in Apoptotic cells (wrt MPP + iodide) (SH-SY5Y neuronal cells; 0.01 μg/mL): 33.5%
% Apoptotic cells (SubG0/G1) (SH-SY5Y neuronal cells; 0.05 μg/mL): 2.4%
% Decrease in Apoptotic cells (wrt MPP + iodide) (SH-SY5Y neuronal cells; 0.05 μg/mL): 29.9%
% Apoptotic cells (SubG0/G1) (SH-SY5Y neuronal cells; 0.1 μg/mL): 2.4%
% Decrease in Apoptotic cells (wrt MPP + iodide) (SH-SY5Y neuronal cells; 0.1 μg/mL): 27.7%
% Apoptotic cells (SubG0/G1) (SH-SY5Y neuronal cells; 1 μg/mL): 2.2%
% Decrease in Apoptotic cells (wrt MPP + iodide) (SH-SY5Y neuronal cells; 1 μg/mL): 35%
% increase in Transfer Latency Time (Swiss albino mice; G4: 0.5 mg/kg i.v. qdx14, compared with G2 (scopolamine)): 33.2%
Mean Transfer Latency Time (Swiss albino mice; G4: 0.5 mg/kg i.v. qdx14, scopolamine 2.5 mg/kg i.p.): 85.26 s
Mean Transfer Latency Time (Swiss albino mice; G4: 0.5 mg/kg i.v. qdx14, scopolamine 2.5 mg/kg i.p., listed as SEQ ID NO 1): 85.26 ± 6.52 s
% increase in Transfer Latency Time (Swiss albino mice; G5: 0.25 mg/kg i.v. qdx14, compared with G2 (scopolamine)): 29.4%
Mean Transfer Latency Time (Swiss albino mice; G5: 0.25 mg/kg i.v. qdx14, scopolamine 2.5 mg/kg i.p.): 80.58 s
Mean Transfer Latency Time (Swiss albino mice; G5: 0.25 mg/kg i.v. qdx14, scopolamine 2.5 mg/kg i.p., listed as SEQ ID NO 1): 80.58 ± 9.08 s
% increase in Transfer Latency Time (Swiss albino mice; G6: 0.125 mg/kg i.v. qdx14, compared with G2 (scopolamine)): 24.9%
Mean Transfer Latency Time (Swiss albino mice; G6: 0.125 mg/kg i.v. qdx14, scopolamine 2.5 mg/kg i.p.): 75.81 s
Mean Transfer Latency Time (Swiss albino mice; G6: 0.125 mg/kg i.v. qdx14, scopolamine 2.5 mg/kg i.p., listed as SEQ ID NO 1): 75.81 ± 7.75 s
